Test [1] addresses mEGFP–Daple FL (full-length mouse Daple, mEGFP(A206K)-Daple-Flag) (mouse) (UniProt Q6VGS5). Briefly: single-molecule photobleaching steps and spot intensities.
Test [2] deals with mEGFP–Daple FL ΔCT (mouse Daple lacking the CT domain) (mouse). The test is described as above.
The target in test [3] is mEGFP–Daple NT (N-terminal domain of mouse Daple) (mouse). The description is as above.
In test [4] the target is Microtubules polymerised from tubulin protein (T240; Cytoskeleton), paclitaxel-stabilised (UniProt P02550). Briefly: co-sedimentation.

As usually defined, the stoichiometry N is a count of units in the complex or per binding partner. In test [1], “mEGFP–Daple FL (full-length mouse Daple, mEGFP(A206K)-Daple-Flag), Q6VGS5 1-2009” displayed a stoichiometry N of 2. The substance “mEGFP–Daple FL ΔCT (mouse Daple lacking the CT domain) (domain or fragment)” came in with a stoichiometry N in test [2] of 2. On to “mEGFP–Daple NT (N-terminal domain of mouse Daple) (domain or fragment)”, for which the stoichiometry N in test [3] amounted to 2. As a reminder, the Kd is the constant that tells how readily two partners part at equilibrium. Low values mean higher affinity, high ones lower affinity. Regarding “mEGFP–Daple FL (full-length mouse Daple, mEGFP(A206K)-Daple-Flag) (from UniProt Q6VGS5 1-2009) (natural protein)”, in test [4], the Kd is 1460 nM. That is a single-digit micromolar value.

Values taken from publication PMC8094116.
